Measured values reported in patent US20220175920A1.
Several values for one entry are separate records, joined by “and”; a condition that tells them apart may be missing. Equal values may be shown once.

Columns and labels:
[1] = molecular target: human CD40 ectodomain human Fc fusion protein (human) (UniProt P25942); test: competition flow cytometry: mouse mAb titrated into 2 ug/ml human CD40 ectodomain-human Fc, 1 h on ice, then added to human CD40L-transfected L cells; cell-bound CD40-Fc detected with anti-IgG-PE; blocked ligand: CD40L on L cells [left panel]
human CD40 ectodomain human Fc fusion protein (human), sequence (P25942 21-193): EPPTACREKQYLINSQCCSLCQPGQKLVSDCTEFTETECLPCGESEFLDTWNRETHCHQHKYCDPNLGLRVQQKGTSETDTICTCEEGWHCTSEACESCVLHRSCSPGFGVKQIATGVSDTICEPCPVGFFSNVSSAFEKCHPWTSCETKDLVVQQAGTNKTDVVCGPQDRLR

[2] = molecular target: human CD40 on cells (B cells, MDDCs, stably transfected CHO cells) (human) (UniProt P25942); test: cell-based or functional assay
human CD40 on cells (B cells, MDDCs, stably transfected CHO cells) (human), sequence (P25942 21-277): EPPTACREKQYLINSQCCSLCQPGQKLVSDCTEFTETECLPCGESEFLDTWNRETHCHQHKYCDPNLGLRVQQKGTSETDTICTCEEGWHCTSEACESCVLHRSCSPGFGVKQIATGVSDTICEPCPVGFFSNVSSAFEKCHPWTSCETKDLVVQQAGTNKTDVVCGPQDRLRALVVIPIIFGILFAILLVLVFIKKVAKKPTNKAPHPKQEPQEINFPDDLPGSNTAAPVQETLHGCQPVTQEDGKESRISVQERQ

12E12 (antibody)
IC50 (read off the curve) [1]: 0.1 µg/mL

MEGACD40L (Mega sCD40L) (ligand)
EC50 (nM) IL-12 p40, MDDC secretion [2]: > 1 nM and < 10 nM | EC50 (nM) IL-15, MDDC secretion [2]: > 1 nM and < 10 nM | EC50 (nM) TNFα, MDDC secretion [2]: > 1 nM and < 10 nM | EC50/11B6-CD40L, IL-12 p40 [2]: 100 | EC50/11B6-CD40L, IL-15 [2]: 100 | EC50/11B6-CD40L, TNFα [2]: 100

human IgG4 control mAb with CD40L fused to the L chain
EC50 (nM) B cell: 50% of maximum B cell proliferation (FIG. 10B) [2]: > 10 nM | fold less active in inducing B cell proliferation than the 11B6 and 12B4-CD40L fusion proteins [2]: 10 fold
